Assay results published in the supplement of paper PMC7125110.
± gives the standard error. This sample holds only a part of the variants without activity.

B1: glmS ribozyme (parent)
chain: AUAAAAGCGCCAGAACUACAGAAAUGUAGUUGACGAGGAGGAGGUUUAUCGAAUUUUCGGCGGAUGCCUCCAAA

Variants of: B1
Experiment: self-cleavage kobs at 10000 uM GlcN6P; higher = faster cleavage; RNA array
Details: with glucosamine-6-phosphate
Method in brief: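 Ribozyme variants carrying barcodes were transcribed in situ on sequenced MiSeq chips by E. coli RNA polymerase and tracked at 37 °C with a hybridised Cy3 probe. They were exposed to 40 μM to 10 mM glucosamine-6-phosphate in HEPES/KCl/Mg(OAc)2 buffer. kobs came from exponential decay fits of normalised per-tile medians, and kcat and KM from weighted Michaelis–Menten fits.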

| Variant | self-cleavage kobs at 10000 uM GlcN6P |
| --- | --- |
| A42U U65G U69G | 0.00259 ± 0.00036 s⁻¹ |
| A39C C50A A53C G66U | < 1e-05 s⁻¹ |
| U49A C50A | < 1e-05 s⁻¹ |
| G43A G59C C67G | < 1e-05 s⁻¹ |
| A39C A42U U46G | 3.93e-05 ± 1.5e-05 s⁻¹ |
| U45C U54G C70A | 5.88e-05 ± 1.3e-05 s⁻¹ |
| A42C G51A G63U | < 1e-05 s⁻¹ |
| C50U U55C | 4.47e-05 ± 1.1e-05 s⁻¹ |
| A42C U45C C50U | < 1e-05 s⁻¹ |
| A42U G62A U69G | < 1e-05 s⁻¹ |
| A39C U46A U55A U57A | < 1e-05 s⁻¹ |
| G38U U45A C58A U65C | < 1e-05 s⁻¹ |
| U47G A48U C68U | 9.1e-05 ± 1.8e-05 s⁻¹ |
| A39C G40U G59C C70U | < 1e-05 s⁻¹ |
| G41U A53G C71A | 0.000206 ± 4.7e-05 s⁻¹ |
| G44U U54C | 0.000226 ± 5e-05 s⁻¹ |
| G44U U57G G66A C70G | < 1e-05 s⁻¹ |
| A48G A52G C71G | < 1e-05 s⁻¹ |
| C50U C58A C67U | < 1e-05 s⁻¹ |
| G43U G62A | < 1e-05 s⁻¹ |
| U47A C50G G63U U69G | 5.11e-05 ± 1.5e-05 s⁻¹ |
| G40A G59U C61A | < 1e-05 s⁻¹ |
| G40C G41U G62A | < 1e-05 s⁻¹ |
| C50U A53U G62A | < 1e-05 s⁻¹ |
| G40A A53G C70A | 0.000157 ± 3.7e-05 s⁻¹ |
| A39G C61A G62U | < 1e-05 s⁻¹ |

| Variant | self-cleavage kobs at 10000 uM GlcN6P |
| --- | --- |
| A42U U46C C50A A53U | < 1e-05 s⁻¹ |
| A53G U56G C71G | 0.00022 ± 5.2e-05 s⁻¹ |
| G43C G51U G62U | < 1e-05 s⁻¹ |
| G44U A48G C50U C71U | < 1e-05 s⁻¹ |
| G51C A52U U57C G59U | < 1e-05 s⁻¹ |
| G38U G41U A48U A52G U56C G60A C68G C71U | < 1e-05 s⁻¹ |
| U45C U49G | 3.08e-05 ± 1.4e-05 s⁻¹ |
| C50U G51U C70U | < 1e-05 s⁻¹ |
| C50U G60U C70A | < 1e-05 s⁻¹ |
| G38U A53U | < 1e-05 s⁻¹ |
| G41C U56G G62U | < 1e-05 s⁻¹ |
| C61A U69C | < 1e-05 s⁻¹ |
| U47C U65G C71U | 0.00338 ± 0.00055 s⁻¹ |
| U49A U56A A64C | < 1e-05 s⁻¹ |
| A39C G43C C50A | < 1e-05 s⁻¹ |
| U54C G59A | 8.08e-05 ± 1.3e-05 s⁻¹ |
| C50A U55G U57C | < 1e-05 s⁻¹ |
| A39G C67A C68A | 6.69e-05 ± 1.7e-05 s⁻¹ |
| U56C U57A | 8.46e-05 ± 1.3e-05 s⁻¹ |
| U46C G62A G66A C71A | < 1e-05 s⁻¹ |
| G41A C61G A64U | < 1e-05 s⁻¹ |
| G38C A53C C67U | < 1e-05 s⁻¹ |
| A53U U65G C67U | 0.00235 ± 0.00042 s⁻¹ |
| A39U G51U C70A | < 1e-05 s⁻¹ |
| G44A A64G | 3.74e-05 ± 1.4e-05 s⁻¹ |
| A52C U54G C71G | < 1e-05 s⁻¹ |

| Variant | self-cleavage kobs at 10000 uM GlcN6P |
| --- | --- |
| A39G G44A U57A C61U C70U | < 1e-05 s⁻¹ |
| G43U U46G C50U C58A | < 1e-05 s⁻¹ |
| G40U U45A C70G | 0.000163 ± 3.4e-05 s⁻¹ |
| A39U U49G U54G | 0.00053 ± 0.00012 s⁻¹ |
| U56A C58A C67G | 7.18e-05 ± 2.4e-05 s⁻¹ |
| G44A U65G C67U | 0.00292 ± 0.00045 s⁻¹ |
| U46A C68A C71A | < 1e-05 s⁻¹ |
| U65C U69C | 0.000106 ± 2.2e-05 s⁻¹ |
| G63A A64U C68U | < 1e-05 s⁻¹ |
| C50U G59U A64U | < 1e-05 s⁻¹ |
| A48U C61A C70G | < 1e-05 s⁻¹ |
| A52G U65G C71G | 2.3e-05 ± 1.1e-05 s⁻¹ |
| U47G U55C C67A | 0.000309 ± 4.9e-05 s⁻¹ |
| A39G G44U C71U | 3.94e-05 ± 1.7e-05 s⁻¹ |
| G40C A53U C61A | < 1e-05 s⁻¹ |
| G43C U55A G60U | < 1e-05 s⁻¹ |
| U56A C67U C71G | 5.21e-05 ± 8.7e-06 s⁻¹ |
| U45A A52U C61A | < 1e-05 s⁻¹ |
| G38U U49C G63A | < 1e-05 s⁻¹ |
| A39C U57A C58G G63U | < 1e-05 s⁻¹ |
| U47A A53U C68G | 4.16e-05 ± 1.7e-05 s⁻¹ |
| G41C G59U G60C | < 1e-05 s⁻¹ |
| U57C C58A | 2.32e-05 ± 9.2e-06 s⁻¹ |
| U45A U46C C67G | 0.000673 ± 0.00013 s⁻¹ |
| U57G A64G | 9.48e-05 ± 1.8e-05 s⁻¹ |
| G38U A39G A42C A48U | < 1e-05 s⁻¹ |

| Variant | self-cleavage kobs at 10000 uM GlcN6P |
| --- | --- |
| A39U U47A C67U | 0.00456 ± 0.0007 s⁻¹ |
| U54A G60A | 3.42e-05 ± 1.5e-05 s⁻¹ |
| G40A G44U A64C | < 1e-05 s⁻¹ |
| G43U U55G | 3.47e-05 ± 1.3e-05 s⁻¹ |
| G44C U56G | 5.6e-05 ± 1.2e-05 s⁻¹ |
| G43A U46A G59C | < 1e-05 s⁻¹ |
| G40C A52C | < 1e-05 s⁻¹ |
| A39C G51A C58U G62U | < 1e-05 s⁻¹ |
| G44C U55C U57C G59U | < 1e-05 s⁻¹ |
| U54A G60U A64U | < 1e-05 s⁻¹ |
| G41C C50A G62U | < 1e-05 s⁻¹ |
| U54C C58G G63C | < 1e-05 s⁻¹ |
| A52U G66U C67A | 8.48e-05 ± 2.8e-05 s⁻¹ |
| A42G U45C U46C | 0.00102 ± 0.00019 s⁻¹ |
| G66A C68U C71A | 0.000105 ± 1.9e-05 s⁻¹ |
| A39C G44A G59C | < 1e-05 s⁻¹ |
| U47G G66C | 0.000614 ± 0.00011 s⁻¹ |
| G44A U56A A64G | 0.000101 ± 2.4e-05 s⁻¹ |
| G38U A52U C58U | < 1e-05 s⁻¹ |
| C50G A53G C68G C70A | 7.46e-05 ± 1.9e-05 s⁻¹ |
| A48G G66A | 2.4e-05 ± 1.2e-05 s⁻¹ |
| G44U A64C C70U | < 1e-05 s⁻¹ |
| U49A A53C G63U C71G | < 1e-05 s⁻¹ |
| C61U G62U C67U | < 1e-05 s⁻¹ |
| U54A A64C | 0.000157 ± 2.8e-05 s⁻¹ |
